Source: article PMC4517315, “Functional properties and structural characterization of rice δ^1-pyrroline-5-carboxylate reductase” (Frontiers in Plant Science, 2015)

Tests used:
[1] = molecular target: Oryza sativa P5C reductase, from pMCSG68, for crystallization (Oryza sativa (japonica rice)); test: crystal structure; 3.40 Å, space group P2(1), two decamers in the asymmetric unit; crystals from 100 mM Tris-HCl pH 8.5, 200 mM MgCl2, 18% PEG 8000, 19°C; molecular replacement with a homology model based on PDB 2izz
[2] = molecular target: T1, rice δ^1-pyrroline-5-carboxylate reductase (Oryza sativa, UniProt Q8GT01); test: product inhibition of purified recombinant enzyme, NADH-dependent P5C reduction at […] nm; Lineweaver-Burk/non-linear regression; type: biochemical
T1 construct: gene Os01g0948400

[3] = molecular target: rice (Oryza sativa L.) δ1-pyrroline-5-carboxylate (P5C) reductase, from pET151-OsP5CR, TEV-cleaved (Oryza sativa (japonica rice)); test: SEC; gel permeation on Superose 12 HR 10/30, 50 mM Tris-HCl pH 7.75, 250 mM NaCl, 100 uL of protein at 10 mg/mL, calibrated with molecular weight markers; identical elution patterns up to 1 M NaCl (data not shown); size of the oligomer from the apparent mass
[4] = substrate: NC(=O)C1=CN([C@@H]2O[C@H](COP(=O)(O)OP(=O)(O)OC[C@H]3O[C@@H](n4cnc5c(N)ncnc54)[C@H](O)[C@@H]3O)[C@@H](O)[C@H]2O)C=CC1; test: purified protein; conditions: P5C binding is required to allow NADH to enter the active site; varied: cofactor
[5] = substrate: NC(=O)C1=CN([C@@H]2O[C@H](COP(=O)(O)OP(=O)(O)OC[C@H]3O[C@@H](n4cnc5c(N)ncnc54)[C@H](OP(=O)(O)O)[C@@H]3O)[C@@H](O)[C@H]2O)C=CC1; test: purified protein; conditions: varied: cofactor
[6] = substrate: O=C(O)C1CCC=N1; test: purified protein; type: biochemical, Oryza sativa; conditions: NADPH P5C binds before NADPH (ordered substrate binding)

Molecule: Oryza sativa P5C reductase, from pMCSG68, for crystallization (enzyme)
- stoichiometry N [1]: 10 subunits

Molecule: NC(=O)c1ccc[n+]([C@@H]2O[C@H](COP(=O)([O-])OP(=O)(O)OC[C@H]3O[C@@H](n4cnc5c(N)ncnc54)[C@H](OP(=O)(O)O)[C@@H]3O)[C@@H](O)[C@H]2O)c1 [NADP^+]
- Ki [2]: 0.00773 ± 0.00069 mM

Molecule: rice (Oryza sativa L.) δ1-pyrroline-5-carboxylate (P5C) reductase, from pET151-OsP5CR, TEV-cleaved (enzyme)
- stoichiometry N [3]: 14 subunits

Molecule: O=C(O)[C@@H]1CCCN1 [L-proline]
- Ki [2]: 20.2 ± 1 mM

B1: rice δ^1-pyrroline-5-carboxylate reductase (Oryza sativa Japonica Group) (protein)
chain: MAAPPQPVPAPAAASPEVFRLGFIGPGNLAESIARGVAASGVLPATAIRTAPHRRPERAEAFSSIGAHILETNAQVVDDSDVIVISVKPQIVRQVLVELKPLLSEEKLLVSIAAGIKMEDLQGWSGHRRFIRVMPNTPSAVGQAASVMCLGEMATENDENRVRSLFSAIGKVWTAEEKYFDAVTGLSGSGPAYIFLAIEAMADGGVAAGLPRDLALGLASQTVLGAATMVNKTGKHPGQLKDMVTSPAGTTITGIQELEKGAFRGTLINAVVAATKRCRELSQS
- Km [4]: 806 ± 89 µM
- Vmax [4]: 158.3 ± 13.2 μkat (mg protein)^-1
- Km [5]: 49.4 ± 1.8 µM
- Vmax [5]: 11.68 ± 0.16 μkat (mg protein)^-1
- Km [6]: 28.8 ± 1.7 µM
